Data on 19 molecules can be found in patent US20060193821, “Aptamers to the human IL-12 cytokine family and their use as autoimmune disease therapeutics” (published 2006).

Series [1] deals with T1, IL-23 (human, p19/p40 heterodimer) (Homo sapiens, UniProt Q9NPF7;P29460 SEQ:20-189,SEQ:23-328). The experiment in a line: filter; no binding. The note with it: tags: R&D Systems, carrier free. From the text:
The fraction aptamer bound vs. [IL-23] was used to calculate the KD by fitting the following equation to the data: Fraction aptamer bound=amplitude*([IL-23]/(KD+[IL-23]))+background binding.
Table 25 below summarizes the minimized sequences and the parent clone from which they were derived, and Table 26 summarizes the binding characterization from direct binding assays (+/−tRNA) and competition binding assays for the minimized constructs tested.

Series [2] addresses T1, IL-23 (human, p19/p40 heterodimer). The experiment in a line: filter; 1X SHMCK, 1 mM Mg, 1 mM Ca, 0.1 mg/mL tRNA, RT. The note with it: tags: R&D Systems, carrier free; label: 5'-32P. How it is done:
(§1) Monitoring Progress of rRfY Selection. Dot blot binding assays were performed throughout the selections to monitor the protein binding affinity of the pools. Trace ³²P-labeled RNA was combined with a dilution series of h-IL-23 and incubated at room temperature for 30 minutes in 1×SHMCK (20 mM Hepes, 120 mM NaCl, 5 mM KCl, 1 mM MgCl₂, 1 mM CaCl₂, pH 7.4) plus 0.1 mg/mL tRNA for a final volume of 20 μL. The binding reactions were analyzed by nitrocellulose filtration using a Minifold I dot-blot, 96-well vacuum filtration manifold (Schleicher & Schuell, Keene, N.H.). A three-layer filtration medium was used, consisting (from top to bottom) of Protran nitrocellulose (Schleicher & Schuell), Hybond-P nylon (Amersham Biosciences) and GB002 gel blot paper (Schleicher & Schuell). RNA that is bound to protein is captured on the nitrocellulose filter, whereas the non-protein bound RNA is captured on the nylon filter. The gel blot paper was included simply as a supporting medium for the other filters. Following filtration, the filter layers were separated, dried and exposed on a phosphor screen (Amersham Biosciences, Piscataway, N.J.) and quantified using a Storm 860 Phosphorimager® blot imaging system (Amersham Biosciences).
(§2) When a significant positive ratio of binding of RNA in the presence of h-IL-23 versus in the absence of h-IL-23 was seen, the pools were cloned using a TOPO TA cloning kit (Invitrogen, Carlsbad, Calif.) according to the manufacturer's instructions. For the h-IL-23 and X-IL-23 selections, the Round 8 pool templates were cloned, and 32 individual clones from each selections were assayed in a 1-point dot blot screen (+/−75 nM h-IL-23, as well as a separate screen at +/−75 nM h-IL-12). For the PN-IL-23 selection, the Round 10 pool was cloned and sequenced, and 8 unique clones were assayed for protein binding in a 1-point dot blot screen (+/−200 nM h-IL-23 and a separate screen at +/−200 nM h-IL-12). Subsequently, the Round 10 PN-IL-23 pool was re-cloned for further sequences, as well as the R12 PN-IL-23 pool, and the clones were assayed for protein binding in a 1 point do blot screen (+/−100 nM h-IL-23 or +/−200 nM h-IL-12).

For series [3], the target named is T2, IL-12 (human, p35/p40 heterodimer) (Homo sapiens, UniProt P29459;P29460 SEQ:57-253,SEQ:23-328). In words: filter; 1X SHMCK, 0.1 mg/mL tRNA, RT. The note with it: label: 5'-32P. As to the method:
as §1, §2

The target in series [4] is T1, IL-23 (human, p19/p40 heterodimer). In words: cell_activity; Pathscan pSTAT3. The note with it: tags: R&D Systems, carrier free. As to the method: Inhibition of IL-23-induced STAT3 phosphorylation was measured using the Pathscan® Phospho-STAT3 (Tyr705) Sandwich ELISA Kit (Cell Signaling Technology, Beverly, Mass.).
Similar to the TransAM™ Assay method previously described, the Pathscan® Phospho-STAT3 (Tyr705) Sandwich ELISA Kit detects endogenous levels of Phospho-STAT3 (Tyr705) protein by using a STAT3 rabbit monoclonal antibody which has been coated onto the wells of a 96-well plate. After incubation with cell lysates, both nonphospho- and phospho-STAT3 proteins are captured by the coated antibody. A phospho-STAT3 mouse monoclonal antibody is added to detect the captured phospho-STAT3 protein, and an HRP-linked anti-mouse antibody is then used to recognize the bound detection antibody. HRP substrate, TMB, is added to develop color, and the magnitude of optical density for this developed color is proportional to the quantity of phospho-STAT3 protein.
PHA Blasts were isolated and prepared as described above and treated with hIL-23 at a final constant concentration of 6 ng/mL (R&D Systems, Minneapolis, Minn.) to induce STAT3 activation, instead of using 3 ng/mL as previously described with the TransAM™ assay. Clones were screened by using a 6-point […] titration from 0 to 700 nM in 3 fold dilutions in combination with a constant IL-23 concentration of 6 ng/mL of IL-23 (R&D Systems, Minneapolis, Minn.) to induce STAT3 activation, instead of using 3 ng/mL as previously described with the TransAM™ assay. Lysates of treated cells were prepared using the buffers provided by the Pathscan kit, and the assay was run according to the manufacturer's instructions. IC₅₀s for the full length clones were calculated from the dose response curves.

Series [5] has the same target. The experiment in a line: filter; DPBS Ca Mg. The note with it: tags: R&D Systems, carrier free. How it is done: The dot blot binding assay previously described was used to characterize the relative potency of the majority of the aptamers synthesized. For KD determination, chemically synthesized aptamers were purified using denaturing polyacrylamide gel electrophoresis, 5′end labeled with γ-³²P ATP and were tested for direct binding to full human IL-23. An 8 point protein titration was used in the dot blot binding assay (either {100 nM, 30 nM, 10 nM, 3 nM, 1 nM, 300 pM, 100 pM, 0 pM} or {10 nM, 3 nM, 1 nM, 300 pM, 100 pM, 30 pM, 10 pM, 0 pM}) in Dulbecco's PBS (with Mg⁺⁺ and Ca⁺⁺) with 0.1 mg/mL BSA. KD values were calculated by fitting the equation y=(max/(1+K/protein))+yint using KaleidaGraph (KaleidaGraph v. 3.51, Synergy Software). Sequences of the ARC979 derivatives synthesized, purified and assayed for binding to IL-23 as well as the results of the protein binding characterization are tabulated below in Tables 29 and 30.

Series [6] has as its target T2, IL-12 (human, p35/p40 heterodimer). In words: filter; no significant binding; 1X SHMCK, 0.1 mg/mL tRNA. The note with it: label: 5'-32P. As to the method:
as §1, §2

The term Kd denotes the free concentration of one partner at which half of the binding sites on the other are occupied at equilibrium, for simple one-to-one binding. Usually IC50 stands for the concentration at which inhibition is half-maximal.

T1 sequence (Q9NPF7 20-189, chain 1 of 2): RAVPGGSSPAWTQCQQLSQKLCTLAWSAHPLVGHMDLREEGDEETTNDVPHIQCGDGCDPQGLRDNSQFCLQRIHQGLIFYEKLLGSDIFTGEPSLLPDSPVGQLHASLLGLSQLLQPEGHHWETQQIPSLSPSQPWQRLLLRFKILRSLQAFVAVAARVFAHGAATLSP
T1 sequence (P29460 23-328, chain 2 of 2): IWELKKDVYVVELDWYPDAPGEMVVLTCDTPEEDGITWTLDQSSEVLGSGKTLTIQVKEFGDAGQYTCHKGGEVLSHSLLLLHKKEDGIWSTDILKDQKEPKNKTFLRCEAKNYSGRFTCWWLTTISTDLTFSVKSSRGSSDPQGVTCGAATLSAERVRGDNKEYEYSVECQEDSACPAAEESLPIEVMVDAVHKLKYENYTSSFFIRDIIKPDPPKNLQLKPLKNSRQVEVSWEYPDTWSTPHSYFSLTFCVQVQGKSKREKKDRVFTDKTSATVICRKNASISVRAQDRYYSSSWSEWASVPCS
T2 sequence (P29459 23-219, chain 1 of 2): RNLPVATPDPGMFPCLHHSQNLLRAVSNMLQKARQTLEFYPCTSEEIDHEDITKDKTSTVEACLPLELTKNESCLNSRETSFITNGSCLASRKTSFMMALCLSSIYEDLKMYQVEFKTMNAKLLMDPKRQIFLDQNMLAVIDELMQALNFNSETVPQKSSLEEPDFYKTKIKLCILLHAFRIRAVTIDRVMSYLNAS
T2 sequence (P29460 23-328, chain 2 of 2): as the sequence (P29460 23-328, chain 2 of 2) above

Turning to GGCGGUACGGGGGGAGUGGGCUGGG (mixed, deoxy A,G; 2'-OMe C,U) [ARC1170], the binding result in series [1] is “no binding”.

Consider GGCGGUACGGGGAGUGUGGGUUGGG (mixed, deoxy A,G; 2'-OMe C,U) [ARC1171], for which the binding result in series [1] is recorded as “no binding”.

B1: AMX91-B8 (ssRNA)
RNA: GGGAAAAGCGAAUCAUACACAAGAAUCCUGGCUUCGCAUAGUGUAUGGGUAGUACGACAGCGCGUGCUCCGCCAGAGACCAACCGAGAA
modifications: 2'-F all C and U (rRfY)
Take B1: the Kd was determined as 17.6 nM in series [2] and 409 nM in series [3].

B2: AMX84-C11 (ssRNA)
RNA: GGGAAAAGCGAAUCAUACACAAGAAUGGUCGGAAUCUCUGGCGCCACGCUGAGUAUAGACGGAAGCUCCGCCAGAGACCAACCGAGAA
modifications: 2'-F all C and U (rRfY)
For B2, the Kd is 15.5 nM in series [2] and 286 nM in series [3].

B3: ARC1622 (mixed)
RNA: ACAGGCAAGUAAUUGGGGAGUGCGGGCGGGGUGU
modifications: 2'-OMe C,U and G16,G17,G24,G25,G30,G31; other A,G deoxy; PS 6-7,7-8,8-9,10-11,11-12,14-15; 3'-idT [PS 6-7,7-8,8-9,10-11,11-12,14-15; 2'-OMe at 2,6,10,13,14,16,17,21,23,24,25,27,30,31,32,34; other A,G deoxy; 3'-inverted dT at 35]
For B3, the IC50 in series [4] was found to be 9 nM. Besides, in series [5], the Kd amounted to 0.3 nM.

B4: ARC1626 (mixed)
RNA: B3 RNA
modifications: 2'-OMe C,U and G16,G17,G24,G25,G30,G31; other A,G deoxy; multiple PS; 3'-idT [2'-OMe C2,C6,U10,U13,U14,G16,G17,U21,C23,G24,G25,C27,G30,G31,U32,U34; other A,G deoxy; PS 2-3,3-4,4-5,6-7,7-8,8-9,10-11,11-12,14-15,17-18,18-19,19-20,21-22,25-26,27-28,28-29,32-33 (N = PS linkage, left out); 3'-inverted dT 35]
B4: the IC50 in series [4] is 12 nM.

B5: ARC1625 (mixed)
RNA: B3 RNA
modifications: 2'-OMe C,U and G16,G17,G24,G25,G30,G31; other A,G deoxy; PS 32-33; 3'-idT [2'-OMe C2,C6,U10,U13,U14,G16,G17,U21,C23,G24,G25,C27,G30,G31,U32,U34; other A,G deoxy; PS 32-33 (N = PS linkage, left out); 3'-inverted dT 35]
Regarding B5, the IC50 in series [4] came to 4 nM.

B6: ARC1755 (mixed)
RNA: B3 RNA
modifications: 2'-OMe C,U and most purines; PS 2-3,6-7,11-12,14-15; 3'-idT [2'-OMe C2,C6,U10,U13,U14,U21,C23,C27,U32,U34 and most purines (positions not stated); PS 2-3,6-7,11-12,14-15 (N = PS linkage, left out); 3'-inverted dT 35]
For B6, the IC50 in series [4] came to 68 nM. The Kd in series [5] was found to be 0.8 nM.

B7: ARC1623 (mixed)
RNA: B3 RNA
modifications: 2'-OMe C,U and G16,G17,G24,G25,G30,G31; other A,G deoxy; PS 17-18,18-19,19-20,21-22; 3'-idT [2'-OMe C2,C6,U10,U13,U14,G16,G17,U21,C23,G24,G25,C27,G30,G31,U32,U34; other A,G deoxy; PS 17-18,18-19,19-20,21-22 (N = PS linkage, left out); 3'-inverted dT 35]
As to B7, the IC50 in series [4] worked out at 5 nM.

B8: AMX84-B10 (ssRNA)
RNA: GGGAAAAGCGAAUCAUACACAAGAAGUGCUUCAUGCGGCAAACUGCAUGACGUCGAAUAGAUAUGCUCCGCCAGAGACCAACCGAGAA
modifications: 2'-F all C and U (rRfY)
In the case of B8, the binding result in series [6] is “no binding”. The same molecule showed a Kd in series [2] of 21.8 nM.

B9: AMX86-D11 (ssRNA)
RNA: GGGAAAAGCGAAUCAUACACAAGAUAGCGUCUAUGAUGGCGGAGAAGCAAGUGUAGCAUAACAGGCUCCGCCAGAGACCAACCGAGAA
modifications: 2'-F all C and U (rRfY)
For B9, the values for the Kd in series [2] and in series [3] were 199 nM and 114 nM, respectively.

In the case of GGCGGUUACGGGGGAUGCGGGUGGG (mixed, 2'-deoxy A and G, 2'-OMe C and U (dRmY)) [ARC981], the binding result in series [1] (label: 5'-32P) is “no binding”.

B10: AMX86-G10 (ssRNA)
RNA: GGGAAAAGCGAAUCAUACACAAGAGUCAUGGCUUACAAUUGAAACAAGAGCUCGCGUGACACAUGCUCCGCCAGAGACCAACCGAGAA
modifications: 2'-F all C and U (rRfY)
As to B10, the Kd in series [2] worked out at 73.7 nM; in series [3], 356 nM.

B11: AMX86-D6 (ssRNA)
RNA: GGGAAAAGCGAAUCAUACACAAGAUUAGGCGUCGUGACAAUAACUGGUCCACGAGCAUGUCAGUGCUCCGCCAGAGACCAACCGAGAA
modifications: 2'-F all C and U (rRfY)
For the molecule B11, in series [6], the binding result is “no binding”. The same molecule showed a Kd in series [2] of 25 nM.

B12: AMX86-D5 (ssRNA)
RNA: GGGAAAAGCGAAUCAUACACAAGAGAGGUAUGUGGUUUUGCGGAGCAACUCGUGUCAGCGGUCAGCUCCGCCAGAGACCAACCGAGAA
modifications: 2'-F all C and U (rRfY)
As for B12, the binding result in series [6] is reported as “no binding”. The Kd in series [2] stood at 27.4 nM.

B13: AMX84-A10 (ssRNA)
RNA: GGGAAAAGCGAAUCAUACACAAGAAGUUUUUUGUGCUCUGAGUACUCAGCGUCCGUAAGGGAUAUGCUCCGCCAGAGACCAACCGAGAA
modifications: 2'-F all C and U (rRfY)
As for B13, the binding result in series [6] is “no binding”. Besides, binding in series [2] was characterised by a dissociation constant (Kd) of 22.3 nM.

B14: AMX84-F11 (ssRNA)
RNA: GGGAAAAGCGAAUCAUACACAAGAUGUGCUUGAGUUAAAUCUCAUCGUCCCCGUUUGGGGAUAUGCUCCGCCAGAGACCAACCGAGAA
modifications: 2'-F all C and U (rRfY)
As to B14, the binding result in series [6] is “no binding”. For the same molecule, in series [2], the affinity, expressed as Kd, was 16.6 nM.

Take ACAGGCAAGGUAAUUGGGUAGUGAGGGCUGGGUGU (mixed, deoxy A,G; 2'-OMe C,U) [ARC896]: the binding result in series [1] is “no binding”.

GGCAAGGUAAUUGGGAAGUGUGGGCUGGG (mixed, 2'-deoxy A and G, 2'-OMe C and U (dRmY)) [ARC894]: the binding result in series [1] (label: 5'-32P) is given as “no binding”.
